Experimental data: the supplement of paper PMC9732359
± gives the uncertainty stated by the source.

Experiment: protein stability index of a GFP-peptide fusion (yeast GPS) (PSI 1-4); higher = more stable; sorted into four equal gates, so the index is relative within each strain
Procedure, shortened: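 The protein stability index of a peptide was calculated by multiplying its read frequency in each gate by that gate's number and adding the products. The peptides were tiled 17-residue stretches of yeast proteins, fused downstream of GFP on a Cherry-expressing plasmid and carried in yeast as a pooled library. Mid-log cultures in leucine-free medium were sorted into four equal gates by GFP/Cherry ratio, and each gate's plasmids were PCR-amplified and Illumina-sequenced.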

| Sequence | protein stability index (pdr5∆) | protein stability index (san1∆) | protein stability index (ubr1∆) | protein stability index (doa10∆) |
| --- | --- | --- | --- | --- |
| KSRMINFLDAPGHVNFM [SNU114] | 2.65 ± 0.17 | 3.06 ± 0.12 | 3.57 ± 0.28 | – |
| EVNREEAIGFIRGSNKF [SMC3] | 2.77 ± 0.11 | 2.88 ± 0.14 | 2.57 ± 0.09 | 2.84 ± 0.21 |
| PSQSEEQKGQMAKKEGT [MED4] | 3 ± 0.22 | 3.07 ± 0.19 | – | 3.21 ± 0.2 |
| VQLKDANSQIQAYEEII [YIL149C/MLP2] | 3.5 ± 0.17 | 3.37 ± 0.23 | 3.45 ± 0.12 | 2.69 ± 0.12 |
| KNTQSPQTPLVEPVTER [SNU114] | 2.87 ± 0.15 | 2.72 ± 0.097 | 3.01 ± 0.13 | – |
| EMTLPTSPLYMDPGAPL [SSN2] | 2.8 ± 0.11 | 2.8 ± 0.15 | 2.81 ± 0.11 | 3.07 ± 0.11 |
| NVEESVSKADILLSHHR [POP5] | – | 2.91 ± 0.086 | 3.03 ± 0.1 | 3.16 ± 0.19 |
| FNNQGKLDLFKYFTELS [MED1] | 2.83 ± 0.072 | 2.92 ± 0.056 | 2.88 ± 0.092 | 3.07 ± 0.092 |
| IGLVKCTQMTDEGLLNM [GRR1] | 2.91 ± 0.066 | 2.81 ± 0.057 | 2.91 ± 0.043 | 3.01 ± 0.068 |
| LRPGQEISLKAHCILGI [RPC40] | 2.49 ± 0.13 | 2.14 ± 0.099 | 1.82 ± 0.12 | 2.12 ± 0.14 |
| TANTGTIGKRRTTTNTT [TAF14] | 3.29 ± 0.046 | 3.21 ± 0.045 | 3.19 ± 0.062 | 3.18 ± 0.06 |
| VYPITLSTDATSADLKS [UBP6] | 2.53 ± 0.063 | 2.49 ± 0.078 | 2.4 ± 0.059 | 2.32 ± 0.063 |
| LFAGYTDNVIRVWQVMT [ASC1] | 2.07 ± 0.057 | 1.86 ± 0.099 | 2.06 ± 0.066 | 1.61 ± 0.064 |
| DSNGDFNEDQLFSLLEL [RRP46] | 2.82 ± 0.16 | 3.31 ± 0.069 | 2.98 ± 0.1 | 2.83 ± 0.16 |
| TLELESFLEGSKALNSI [RGR1] | 2.16 ± 0.067 | 3.13 ± 0.066 | 2.9 ± 0.078 | 2.54 ± 0.066 |
| LGRTGSRGGVTQVRVEF [RPS28A] | 3.19 ± 0.053 | 3.31 ± 0.047 | 3.19 ± 0.044 | 3.29 ± 0.053 |
| GMPNMPGMPNMPGMPNM [SRP54] | 3.21 ± 0.064 | 3.13 ± 0.061 | 3.14 ± 0.051 | 3.37 ± 0.088 |
| EQHNLVKKGPVRLPTKV [RPS20] | 2.61 ± 0.16 | 2.65 ± 0.063 | 2.64 ± 0.075 | 2.45 ± 0.097 |
| VNNTRRRVYNRVLETTL [BRN1] | 2.98 ± 0.094 | 2.87 ± 0.1 | 2.65 ± 0.11 | 2.5 ± 0.07 |
| RYNAKAIGSGSEGAQAE [PUP2] | 3.14 ± 0.093 | 3.36 ± 0.062 | 2.98 ± 0.075 | 3.24 ± 0.093 |
| EKFSEKMLKIWTMAFRT [ECM29] | 2.09 ± 0.1 | 1.37 ± 0.2 | 1.48 ± 0.09 | 2 ± 0.11 |
| SAAAAGNRNSSSVFLPS [BRR2] | 3.17 ± 0.063 | 3.13 ± 0.046 | 3.15 ± 0.059 | 3.13 ± 0.062 |
| DLLKNAPLFKKNSSRPM [SMD3] | 1.76 ± 0.043 | 1.77 ± 0.11 | 1.62 ± 0.034 | 2.27 ± 0.047 |
| PLFIVEDDESLGHKELK [RPB2] | 3.34 ± 0.15 | 2.77 ± 0.14 | 1.8 ± 0.097 | 3.34 ± 0.15 |
| EARLRNLTYSSGLFVDV [RPB2] | 2.25 ± 0.047 | 1.46 ± 0.075 | 1.79 ± 0.028 | 2.34 ± 0.057 |
| RKCETQKQWDDIAFVLN [YCS4] | 3.01 ± 0.076 | 2.7 ± 0.12 | 3.13 ± 0.078 | 2.96 ± 0.076 |

| Sequence | protein stability index (pdr5∆) | protein stability index (san1∆) | protein stability index (ubr1∆) | protein stability index (doa10∆) |
| --- | --- | --- | --- | --- |
| LLKDDTYQLCVRLRSNV [RPN3] | 1.85 ± 0.29 | – | 1.25 ± 0.2 | 1.47 ± 0.076 |
| TQQAVNLEKNYLAKLSK [IRR1] | 3.34 ± 0.23 | – | 2.91 ± 0.14 | 3.06 ± 0.27 |
| KNHTHNLPGNITVVLGV [RRP4] | 2.68 ± 0.084 | 2.32 ± 0.17 | 2.66 ± 0.078 | 2.3 ± 0.14 |
| ENSTSNSKPEKSSDSND [YLR335W/NUP2] | 3.32 ± 0.16 | 3.31 ± 0.071 | 3.4 ± 0.085 | 3.24 ± 0.14 |
| DVETVKREIQEALSEKP [RPC53] | 3.42 ± 0.12 | 3.17 ± 0.13 | 3.35 ± 0.1 | 3.27 ± 0.15 |
| PADRPQGRRNSRNFSTR [SIR4] | 3.21 ± 0.074 | 3.1 ± 0.071 | 3.15 ± 0.074 | 3.02 ± 0.11 |
| KQTGRDQMVVGWYHSHP [RPN11] | 1.97 ± 0.096 | 2.4 ± 0.15 | 1.53 ± 0.096 | 2.4 ± 0.12 |
| GINPNTFRIFHNHDTGC [YDL088C/ASM4] | 1.85 ± 0.082 | 1.4 ± 0.15 | 1.44 ± 0.047 | 1.83 ± 0.073 |
| DYNLRIYCYFLIMKLGR [SSN8] | 1.12 ± 0.098 | 1.36 ± 0.29 | 1.39 ± 0.11 | 1.23 ± 0.084 |
| VSITPGKIEKIAQSKKK [SRP21] | 1.8 ± 0.086 | 1.36 ± 0.13 | 1.49 ± 0.06 | 1.62 ± 0.081 |
| DYSEIQRSRRKFSERRK [DSN1] | 3.35 ± 0.24 | 3.46 ± 0.087 | 2.75 ± 0.16 | 2.86 ± 0.095 |
| FKAEKLQIVNQLPANMV [RPC17] | 3.07 ± 0.068 | 3.03 ± 0.071 | 3.13 ± 0.056 | 3.36 ± 0.085 |
| LGKRINSAVNNAISNTQ [SRP54] | 3.19 ± 0.12 | 2.91 ± 0.096 | 3.12 ± 0.097 | 2.46 ± 0.099 |
| KSAVSHAPAYHRSKKDQ [IRR1] | 2.79 ± 0.11 | – | 3.1 ± 0.069 | 3.13 ± 0.16 |
| LVREIAQDFKTDLRFQS [HHT1] | 3 ± 0.078 | 2.65 ± 0.076 | 2.88 ± 0.099 | 2.55 ± 0.097 |
| HCIDYLRKNKLGYARFI [SMC4] | 1.21 ± 0.039 | 1.14 ± 0.091 | 1.14 ± 0.04 | 1.19 ± 0.036 |
| HLLRQTNAFLDSLTRAV [SNF2] | 2.6 ± 0.066 | 2.69 ± 0.044 | 2.65 ± 0.033 | 2.61 ± 0.061 |
| VLKFAAHTGATPIAGRF [RPS0A] | 2.85 ± 0.11 | 2.81 ± 0.13 | 2.1 ± 0.12 | 2.23 ± 0.21 |
| QNVNVPSAFNFTGNNST [YOR098C/NUP1] | 2.89 ± 0.06 | 2.77 ± 0.037 | 2.84 ± 0.053 | 2.56 ± 0.049 |
| NLKLISVSLVDEFPSEL [SIR4] | 2.6 ± 0.052 | 2.5 ± 0.06 | 2.6 ± 0.033 | 2.57 ± 0.061 |
| AKGFYHTPMVNFESISA [SRB8] | 1.84 ± 0.05 | 1.52 ± 0.11 | 1.93 ± 0.05 | 2.16 ± 0.06 |
| LHKIFYKVLKNNGLPEC [YCG1] | 1.95 ± 0.043 | 2.45 ± 0.049 | 2.13 ± 0.04 | 1.68 ± 0.045 |
| GVVRYVMESGAKGCEVV [RPS3] | 1.67 ± 0.1 | – | 1.34 ± 0.086 | 1.29 ± 0.097 |
| LYNVMGINKKKLLAISK [RPC31] | 2.3 ± 0.16 | 3.67 ± 0.095 | 3.5 ± 0.26 | 2.83 ± 0.26 |
| KDLVTENAYDNPLADAE [PRE4] | 3.34 ± 0.12 | 3.32 ± 0.11 | 3.21 ± 0.063 | 3.11 ± 0.09 |
